According to patent US10626404B2, “Mutant xylose-metabolizing enzyme and use thereof” (National Institute of Advanced Industrial Science and …, priority 2016, dated 2020):

How the values were obtained:
[1] = molecular target: T1, Clostridium phytofermentans ISDg xylose isomerase (CpXI, SEQ ID NO: 11) mutant CpXI-T63I (Lachnoclostridium phytofermentans, UniProt A9KN98, T63I); assay: Xylose isomerase activity (kinetic parameters) in cell disruption solution, strain SS82; assay type: biochemical; conditions: T63I vs wild type CpXI
T1 construct: cell lysate

[2] = molecular target: T2, Clostridium phytofermentans ISDg xylose isomerase (CpXI, SEQ ID NO: 11) mutant CpXI-V162A, N303T (Lachnoclostridium phytofermentans, UniProt A9KN98, N303T/V162A); assay: Xylose isomerase activity (kinetic parameters) in cell disruption solution, strain SS92; assay type: biochemical; conditions: N303T vs wild type CpXI
T2 construct: cell lysate

[3] = molecular target: T3, Clostridium phytofermentans ISDg xylose isomerase (CpXI, SEQ ID NO: 11) mutant CpXI-N303T (Lachnoclostridium phytofermentans, UniProt A9KN98, N303T); assay: Xylose isomerase activity (kinetic parameters) in cell disruption solution, strain SS105; assay type: biochemical; conditions: cell disruptate after 24 h microaerobic fermentation, xylose 10-500 mM, pH 8.0, 30° C.
T3 construct: cell lysate
Description: (§1) The created mutant CpXI-V162A gene expression plasmid (Table 3: plasmid No. 31) and CpXI-N303T gene expression plasmid (Table 3: plasmid No. 32) were cleaved with BsiWI and used for transformation of strain SS29. The obtained strains were designated as strain SS104 (Table 4: strain No. 29) and strain SS105 (Table 4: strain No. 30), respectively.

[4] = molecular target: T4, Clostridium phytofermentans ISDg xylose isomerase (CpXI, SEQ ID NO: 11) double mutant CpXI-T63I, V162A (Lachnoclostridium phytofermentans, UniProt A9KN98, T63I/V162A); assay: Xylose isomerase activity (kinetic parameters) in cell disruption solution, strain SS120; assay type: biochemical; conditions: cell disruptate after 24 h microaerobic fermentation, xylose 10-500 mM, pH 8.0, 30° C.
T4 construct: cell lysate

[5] = molecular target: Clostridium phytofermentans ISDg xylose isomerase (CpXI), wild type, SEQ ID NO: 11 (Lachnoclostridium phytofermentans, UniProt A9KN98)
[6] = system: Piromyces sp. E2 xylose isomerase mutant E15D, E114G, E129D, T142S, A177T and V433I; conditions: mutant vs wild type Piromyces sp. E2 xylose isomerase; NPL 10; cited from earlier work
[7] = substrate: OC1OC[C@@H](O)[C@H](O)[C@H]1O; assay: cells, lysate or membranes; assay type: biochemical, Clostridium phytofermentans ISDg; conditions: cell disruptate after 24 h microaerobic fermentation, xylose 10-500 mM, pH 8.0, 30° C.
[8] = substrate: OC1OC[C@@H](O)[C@H](O)[C@H]1O; assay: cells, lysate or membranes; assay type: biochemical, Clostridium phytofermentans ISDg; conditions: cell disruptate after 24 h microaerobic fermentation, xylose 10-500 mM, pH 8.0, 30° C.; remark: listed apart in the source
Description: as §1

[9] = substrate: OC1OC[C@@H](O)[C@H](O)[C@H]1O; assay: cells, lysate or membranes; conditions: other: wild type (SS81), cell disruptate after 24 h microaerobic fermentation, xylose 10-500 mM, pH 8.0, 30° C.

Molecule: OC1OC[C@@H](O)[C@H](O)[C@H]1O (stereo partly drawn) [xylose, D-xylose]
- metabolic activity (Vmax) higher than the wild type [1]: 38%
- Vmax value compared with the wild type [2]: equivalent to the wild type
- Vmax value [3]: 0.030 ± 0.001 μmol mg protein^−1 min^−1
- Vmax value [4]: 0.104 ± 0.003 μmol mg protein^−1 min^−1
- Vmax value [5]: 0.66 μmol/mg protein/min
- Km value compared with the wild type [6]: approximately twice as high
- Vmax value larger than the wild type [6]: 77%

B1: Clostridium phytofermentans ISDg xylose isomerase (CpXI, SEQ ID NO: 11) mutant CpXI-T63I (Lachnoclostridium phytofermentans ISDg; T63I) (protein)
chain: MKNYFPNVPEVKYEGPNSTNPFAFKYYDANKVVAGKTMKEHCRFALSWWHTLCAGGADPFGVITMDRTYGNITDPMELAKAKVDAGFELMTKLGIEFFCFHDADIAPEGDTFEESKKNLFEIVDYIKEKMDQTGIKLLWGTANNFSHPRFMHGASTSCNADVFAYAAAKIKNALDATIKLGGKGYVFWGGREGYETLLNTDLGLELDNMARLMKMAVEYGRANGFDGDFYIEPKPKEPTKHQYDFDTATVLAFLRKYGLEKDFKMNIEANHATLAGHTFEHELAMARVNGAFGSVDANQGDPNLGWDTDQFPTDVHSATLAMLEVLKAGGFTNGGLNFDAKVRRGSFEFDDIAYGYIAGMDTFALGLIKAAEIIDDGRIAKFVDDRYASYKTGIGKAIVDGTTSLEELEQYVLTHSEPVMQSGRQEVLETIVNNILFR
notes: cell lysate
- Km ([7]; other: T63I (SS82)): 29.2 mM
- Vmax ([7]; other: T63I (SS82)): 0.091 µmol/min/mg

B2: Clostridium phytofermentans ISDg xylose isomerase (CpXI, SEQ ID NO: 11) mutant CpXI-V162A (Lachnoclostridium phytofermentans ISDg; V162A) (protein)
chain: MKNYFPNVPEVKYEGPNSTNPFAFKYYDANKVVAGKTMKEHCRFALSWWHTLCAGGADPFGVTTMDRTYGNITDPMELAKAKVDAGFELMTKLGIEFFCFHDADIAPEGDTFEESKKNLFEIVDYIKEKMDQTGIKLLWGTANNFSHPRFMHGASTSCNADAFAYAAAKIKNALDATIKLGGKGYVFWGGREGYETLLNTDLGLELDNMARLMKMAVEYGRANGFDGDFYIEPKPKEPTKHQYDFDTATVLAFLRKYGLEKDFKMNIEANHATLAGHTFEHELAMARVNGAFGSVDANQGDPNLGWDTDQFPTDVHSATLAMLEVLKAGGFTNGGLNFDAKVRRGSFEFDDIAYGYIAGMDTFALGLIKAAEIIDDGRIAKFVDDRYASYKTGIGKAIVDGTTSLEELEQYVLTHSEPVMQSGRQEVLETIVNNILFR
notes: cell lysate
- Km ([8]; other: V162A (SS104)): 29.5 mM
- Vmax ([8]; other: V162A (SS104)): 0.063 µmol/min/mg

B3: Clostridium phytofermentans ISDg xylose isomerase (CpXI, SEQ ID NO: 11) mutant CpXI-V162A, N303T (Lachnoclostridium phytofermentans ISDg; N303T/V162A) (protein)
chain: MKNYFPNVPEVKYEGPNSTNPFAFKYYDANKVVAGKTMKEHCRFALSWWHTLCAGGADPFGVTTMDRTYGNITDPMELAKAKVDAGFELMTKLGIEFFCFHDADIAPEGDTFEESKKNLFEIVDYIKEKMDQTGIKLLWGTANNFSHPRFMHGASTSCNADAFAYAAAKIKNALDATIKLGGKGYVFWGGREGYETLLNTDLGLELDNMARLMKMAVEYGRANGFDGDFYIEPKPKEPTKHQYDFDTATVLAFLRKYGLEKDFKMNIEANHATLAGHTFEHELAMARVNGAFGSVDANQGDPTLGWDTDQFPTDVHSATLAMLEVLKAGGFTNGGLNFDAKVRRGSFEFDDIAYGYIAGMDTFALGLIKAAEIIDDGRIAKFVDDRYASYKTGIGKAIVDGTTSLEELEQYVLTHSEPVMQSGRQEVLETIVNNILFR
notes: cell lysate
- Km ([7]; other: V162A, N303T (SS92)): 28.4 mM
- Vmax ([7]; other: V162A, N303T (SS92)): 0.066 µmol/min/mg

B4: Clostridium phytofermentans ISDg xylose isomerase (CpXI, SEQ ID NO: 11) double mutant CpXI-T63I, V162A (Lachnoclostridium phytofermentans ISDg; T63I/V162A) (protein)
chain: MKNYFPNVPEVKYEGPNSTNPFAFKYYDANKVVAGKTMKEHCRFALSWWHTLCAGGADPFGVITMDRTYGNITDPMELAKAKVDAGFELMTKLGIEFFCFHDADIAPEGDTFEESKKNLFEIVDYIKEKMDQTGIKLLWGTANNFSHPRFMHGASTSCNADAFAYAAAKIKNALDATIKLGGKGYVFWGGREGYETLLNTDLGLELDNMARLMKMAVEYGRANGFDGDFYIEPKPKEPTKHQYDFDTATVLAFLRKYGLEKDFKMNIEANHATLAGHTFEHELAMARVNGAFGSVDANQGDPNLGWDTDQFPTDVHSATLAMLEVLKAGGFTNGGLNFDAKVRRGSFEFDDIAYGYIAGMDTFALGLIKAAEIIDDGRIAKFVDDRYASYKTGIGKAIVDGTTSLEELEQYVLTHSEPVMQSGRQEVLETIVNNILFR
notes: cell lysate
- Km ([7]; other: T63I, V162A (SS120)): 34.4 mM
- Vmax ([7]; other: T63I, V162A (SS120)): 0.104 µmol/min/mg

B5: Clostridium phytofermentans ISDg xylose isomerase (CpXI), wild type, SEQ ID NO: 11 (Lachnoclostridium phytofermentans ISDg) (protein)
chain: MKNYFPNVPEVKYEGPNSTNPFAFKYYDANKVVAGKTMKEHCRFALSWWHTLCAGGADPFGVTTMDRTYGNITDPMELAKAKVDAGFELMTKLGIEFFCFHDADIAPEGDTFEESKKNLFEIVDYIKEKMDQTGIKLLWGTANNFSHPRFMHGASTSCNADVFAYAAAKIKNALDATIKLGGKGYVFWGGREGYETLLNTDLGLELDNMARLMKMAVEYGRANGFDGDFYIEPKPKEPTKHQYDFDTATVLAFLRKYGLEKDFKMNIEANHATLAGHTFEHELAMARVNGAFGSVDANQGDPNLGWDTDQFPTDVHSATLAMLEVLKAGGFTNGGLNFDAKVRRGSFEFDDIAYGYIAGMDTFALGLIKAAEIIDDGRIAKFVDDRYASYKTGIGKAIVDGTTSLEELEQYVLTHSEPVMQSGRQEVLETIVNNILFR
- Km [9]: 46.9 mM
- Vmax [9]: 0.066 µmol/min/mg

B6: Clostridium phytofermentans ISDg xylose isomerase (CpXI, SEQ ID NO: 11) mutant CpXI-N303T (Lachnoclostridium phytofermentans ISDg; N303T) (protein)
chain: MKNYFPNVPEVKYEGPNSTNPFAFKYYDANKVVAGKTMKEHCRFALSWWHTLCAGGADPFGVTTMDRTYGNITDPMELAKAKVDAGFELMTKLGIEFFCFHDADIAPEGDTFEESKKNLFEIVDYIKEKMDQTGIKLLWGTANNFSHPRFMHGASTSCNADVFAYAAAKIKNALDATIKLGGKGYVFWGGREGYETLLNTDLGLELDNMARLMKMAVEYGRANGFDGDFYIEPKPKEPTKHQYDFDTATVLAFLRKYGLEKDFKMNIEANHATLAGHTFEHELAMARVNGAFGSVDANQGDPTLGWDTDQFPTDVHSATLAMLEVLKAGGFTNGGLNFDAKVRRGSFEFDDIAYGYIAGMDTFALGLIKAAEIIDDGRIAKFVDDRYASYKTGIGKAIVDGTTSLEELEQYVLTHSEPVMQSGRQEVLETIVNNILFR
notes: cell lysate
- Km ([8]; other: N303T (SS105)): 19.1 mM
- Vmax ([8]; other: N303T (SS105)): 0.03 µmol/min/mg
